Consider 1 molecule from US20090215992A1 (published 2009).

This experiment addresses T1, mouse IL-1α (mouse, UniProt P01582 115-270).
T1 sequence (looked up): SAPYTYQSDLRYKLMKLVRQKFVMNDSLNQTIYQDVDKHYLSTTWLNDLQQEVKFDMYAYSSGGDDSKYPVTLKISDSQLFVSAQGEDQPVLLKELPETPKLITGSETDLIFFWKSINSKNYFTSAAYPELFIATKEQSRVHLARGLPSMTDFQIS
Briefly: cell-based or functional assay.

B1: mIL-1α/β DVD-Ig (bispecific antibody, mouse IgG2a, kappa)
heavy: EVQLQQSGPELVKPGTSVKMSCKTSGYTFTSYVMHWVKQKPGQGLEWIGYIIPYNDNTKYNEKFKGKATLTSDKSSSTAYMELSSLTSEDSAVYYCARRNEYYGSSFFDYWGQGTTLTVSSAKTTAPSVYPLAPQVILKESGPGILQPSQTLSLTCSFSGFSLSTYGTAVNWIRQPSGKGLEWLAQIGSDDRKLYNPFLKSRITLSEDTSNSQVFLKITSVDTEDSATYYCANGVMEYWGLGTSVTVSSAKTTAPSVYPLAPVCGDTTGSSVTLGCLVKGYFPEPVTLTWNSGSLSSGVHTFPAVLQSDLYTLSSSVTVTSSTWPSQSITCNVAHPASSTKVDKKIEPRGPTIKPCPPCKCPAPNLLGGPSVFIFPPKIKDVLMISLSPIVTCVVVDVSEDDPDVQISWFVNNVEVHTAQTQTHREDYNSTLRVVSALPIQHQDWMSGKEFKCKVNNKDLPAPIERTISKPKGSVRAPQVYVLPPPEEEMTKKQVTLTCMVTDFMPEDIYVEWTNNGKTELNYKNTEPVLDSDGSYFMYSKLRVEKKNWVERNSYSCSVVHEGLHNHHTTKSFSRTPGK
light: DIQMTQSPASLSASVGETVTITCRGSGILHNYLVWYQQKQGKSPQLLVYSAKILADGVPSRFSGSGSGTQYSLKINSLQPEDFGSYYCQHFWSTPFTFGSGTKLEIKRADAAPTVSIFPPSIVMTQTPKFLLVSAGDRVTITCKASQSVNHDVAWYQQMPGQSPKLLIYFASNRYTGVPDRFTGSGYGTDFTFTISTVQAEDLAVYFCQQDYSSPYTFGGGTKLEIKRADAAPTVSIFPPSSEQLTSGGASVVCFLNNFYPKDINVKWKIDGSERQNGVLNSWTDQDSKDSTYSMSSTLTLTKDEYERHNSYTCEATHKTSTSPIVKSFNRNEC
With B1, the “fold decrease of potency against the parental anti-mIL-1α mAb” value is 10 fold.
